Results as given in patent US20150203577A1 (Chugai, published 2015).
Changes are numbered by the printed parent chain. Values joined by “and” are separate entries in the source; they are usually repeats but may differ in a detail not shown here. Identical values can stand only once.

T1: mouse FcγRII extracellular domain, C-terminally His-tagged (mouse, UniProt P08101 30-210)
T1 construct: the whole entry is named; also called mFcγRII; mFcgRII
T1 sequence: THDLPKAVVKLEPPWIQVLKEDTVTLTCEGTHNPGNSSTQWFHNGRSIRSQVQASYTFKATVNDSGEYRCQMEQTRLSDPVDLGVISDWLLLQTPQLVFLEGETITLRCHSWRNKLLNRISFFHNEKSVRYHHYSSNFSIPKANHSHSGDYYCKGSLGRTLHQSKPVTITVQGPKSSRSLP

T2: mouse FcγRIII extracellular domain, C-terminally His-tagged (mouse, UniProt P08508 31-215)
T2 construct: the whole entry is named; also called mFcγRIII; mFcgRIII
T2 chain: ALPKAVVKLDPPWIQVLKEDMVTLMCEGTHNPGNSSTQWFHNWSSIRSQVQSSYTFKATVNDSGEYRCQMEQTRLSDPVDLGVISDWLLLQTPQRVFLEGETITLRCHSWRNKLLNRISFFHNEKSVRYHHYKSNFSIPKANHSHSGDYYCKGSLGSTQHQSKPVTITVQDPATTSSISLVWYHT

T3: mouse FcγRII (mouse, UniProt P08101 30-210)
T3 construct: Extracellular domain with C-terminal His tag, made in FreeStyle 293 cells; also called mFcγRII; mFcgRII
T3 sequence: T1 sequence

T4: mouse FcγRIII (mouse, UniProt P08508 31-215)
T4 construct: Extracellular domain with C-terminal His tag, made in FreeStyle 293 cells; also called mFcγRIII; mFcgRIII
T4 chain: T2 chain

B1: H237-MB623/MRAL-k0 (antibody, mouse IgG1, kappa)
heavy: QVQLQESGPGLVKPSETLSLTCAVSGHSISHDHAWSWVRQPPGEGLEWIGFISYSGITNYNPSLQGRVTISRDNSKNTLYLQMNSLRAEDTAVYYCARSLARTTAMDYWGEGTLVTVSSAKTTPPSVYPLAPGSAAQTNSMVTLGCLVKGYFPEPVTVTWNSGSLSSGVHTFPAVLQSDLYTLSSSVTVPSSTWPSETVTCNVAHPASSTKVDKKIVPRDCGCKPCICEAYEVELVFIFPPKPKDVLTITLTPKVTCVVVDISKDDPEVQFSWFVDDVEVHTAQTQPREEQFNSTFRSVSELPIMHQDWLNGKEFKCRVNSAAFPAPIEKTISKTKGRPKAPQVYTIPPPKEQMAKDKVSLTCMITDFFPEDITVEWQWNGQPAENYKNTQPIMDTDGSYFVYSKLNVQKSNWEAGNTFTCSVLHEGLHNHHTEKSLSHSPGK
light: not shown
notes: copies: 2 + 2
B2: H237-MB634/MRAL-k0 (antibody, mouse IgG1, kappa)
heavy: B1 heavy with A230N, L235N
light: not shown
notes: copies: 2 + 2
B3: H237-MB643/MRAL-k0 (antibody, mouse IgG1, kappa)
heavy: B1 heavy with A230N, L235Y
light: not shown
notes: copies: 2 + 2
B4: H237-MB635/MRAL-k0 (antibody, mouse IgG1, kappa)
heavy: B1 heavy with A230T, L235N
light: not shown
notes: copies: 2 + 2
B5: H237-MB630/MRAL-k0 (antibody, mouse IgG1, kappa)
heavy: B1 heavy with A230P, Y231N
light: not shown
notes: copies: 2 + 2
B6: H237-MB649/MRAL-k0 (antibody, mouse IgG1, kappa)
heavy: B1 heavy with E229Q, A230P, Y231N, L235Y
light: not shown
notes: copies: 2 + 2
B7: H237-MB641/MRAL-k0 (antibody, mouse IgG1, kappa)
heavy: B1 heavy with L235Y
light: not shown
notes: copies: 2 + 2
B8: H237-MB642/MRAL-k0 (antibody, mouse IgG1, kappa)
heavy: B1 heavy with A230D, L235Y
light: not shown
notes: copies: 2 + 2
B9: H237-MB627/MRAL-k0 (antibody, mouse IgG1, kappa)
heavy: B1 heavy with A230V
light: not shown
notes: copies: 2 + 2
B10: H237-MB645/MRAL-k0 (antibody, mouse IgG1, kappa)
heavy: B1 heavy with A230V, L235Y
light: not shown
notes: copies: 2 + 2
B11: H237-MB631/MRAL-k0 (antibody, mouse IgG1, kappa)
heavy: B1 heavy with E229Q, A230P, Y231N
light: not shown
notes: copies: 2 + 2
B12: H237-MB638/MRAL-k0 (antibody, mouse IgG1, kappa)
heavy: B1 heavy with E229I, A230P, Y231A, L235N
light: not shown
notes: copies: 2 + 2
B13: H237-MB629/MRAL-k0 (antibody, mouse IgG1, kappa)
heavy: B1 heavy with E229I, A230P, Y231A
light: not shown
notes: copies: 2 + 2
B14: H237-MB648/MRAL-k0 (antibody, mouse IgG1, kappa)
heavy: B1 heavy with A230P, Y231N, L235Y
light: not shown
notes: copies: 2 + 2
B15: H237-MB640/MRAL-k0 (antibody, mouse IgG1, kappa)
heavy: B1 heavy with E229Q, A230P, Y231N, L235N
light: not shown
notes: copies: 2 + 2
B16: H237-MB646/MRAL-k0 (antibody, mouse IgG1, kappa)
heavy: B1 heavy with A230P, Y231A, L235Y
light: not shown
notes: copies: 2 + 2
B17: H237-MB633/MRAL-k0 (antibody, mouse IgG1, kappa)
heavy: B1 heavy with A230D, L235N
light: not shown
notes: copies: 2 + 2
B18: H237-MB625/MRAL-k0 (antibody, mouse IgG1, kappa)
heavy: B1 heavy with A230N
light: not shown
notes: copies: 2 + 2
B19: H237-MB650/MRAL-k0 (antibody, mouse IgG1, kappa)
heavy: B1 heavy with L235F
light: not shown
notes: copies: 2 + 2
B20: H237-MB652/MRAL-k0 (antibody, mouse IgG1, kappa)
heavy: B1 heavy with A230N, L235F
light: not shown
notes: copies: 2 + 2
B21: H237-MB647/MRAL-k0 (antibody, mouse IgG1, kappa)
heavy: B1 heavy with E229I, A230P, Y231A, L235Y
light: not shown
notes: copies: 2 + 2
B22: H237-MB624/MRAL-k0 (antibody, mouse IgG1, kappa)
heavy: B1 heavy with A230D
light: not shown
notes: copies: 2 + 2
B23: H237-MB651/MRAL-k0 (antibody, mouse IgG1, kappa)
heavy: B1 heavy with A230D, L235F
light: not shown
notes: copies: 2 + 2
B24: H237-MB639/MRAL-k0 (antibody, mouse IgG1, kappa)
heavy: B1 heavy with A230P, Y231N, L235N
light: not shown
notes: copies: 2 + 2
B25: H237-MB644/MRAL-k0 (antibody, mouse IgG1, kappa)
heavy: B1 heavy with A230T, L235Y
light: not shown
notes: copies: 2 + 2
B26: H237-MB626/MRAL-k0 (antibody, mouse IgG1, kappa)
heavy: B1 heavy with A230T
light: not shown
notes: copies: 2 + 2
B27: H237-MB632/MRAL-k0 (antibody, mouse IgG1, kappa)
heavy: B1 heavy with L235N
light: not shown
notes: copies: 2 + 2
B28: H237-MB628/MRAL-k0 (antibody, mouse IgG1, kappa)
heavy: B1 heavy with A230P, Y231A
light: not shown
notes: copies: 2 + 2
B29: H237-MB636/MRAL-k0 (antibody, mouse IgG1, kappa)
heavy: B1 heavy with A230V, L235N
light: not shown
notes: copies: 2 + 2
B30: H237-MB637/MRAL-k0 (antibody, mouse IgG1, kappa)
heavy: B1 heavy with A230P, Y231A, L235N
light: not shown
notes: copies: 2 + 2
B31: H237-MB594/MRAL-k0 (antibody, mouse IgG1, kappa)
heavy: B1 heavy with A230V, Y231P, V233E, L235S
light: not shown
notes: copies: 2 + 2
B32: H237-MB645/MRAL-k0 (antibody, mouse IgG1, kappa)
heavy: B1 heavy with A230V, L235Y
light: not shown
notes: copies: 2 + 2

What follows are binders tested against T1, mouse FcγRII extracellular domain, … (assay: SPR Biacore T200, KD ratio).
Protocol: (§1) Each altered antibody was analyzed for its interaction with each Fcγ receptor prepared above using Biacore T100 (GE Healthcare Japan Corp.), Biacore T200 (GE Healthcare Japan Corp.), Biacore A100, or Biacore 4000. The running buffer used was HBS-EP+ (GE Healthcare Japan Corp.). The assay temperature was set to 25° C. The sensor chips used were chips prepared by immobilizing Protein L (ACTIGEN or BioVision) onto Series S Sensor Chip CM5 (GE Healthcare Japan Corp.) or Series S Sensor Chip CM4 (GE Healthcare Japan Corp.) by the amine coupling method.
(§2) In order to calculate the KD value of each altered antibody for FcγR, kinetic analysis was conducted according to the following method: first, the antibody of interest was captured onto any of these chips and allowed to interact with mFcγR diluted with a running buffer. For the obtained sensorgram, the assay results were globally fit into the 1:1 Langmuir binding model using Biacore Evaluation Software to calculate an association rate constant ka (L/mol/s) and a dissociation rate constant kd (1/s). From these values, the dissociation constant KD (mol/L) was calculated.

Binder	relative mFcγRII-binding activity (mIgG1 = 1) [fold]
B1	0.53
B2	2.52
B3	1.66
B4	5.06
B5	14.3
B6	3.89
B7	1.47
B8	1.87
B9	0.32
B10	1.17
B11	4.29
B12	0.75
B13	0.38
B14	10.8
B15	1.06
B16	4.38
B17	2.77
B18	0.67
B19	0.24
B20	0.28
B21	1.05
B22	0.8
B23	0.3
B24	4.91
B25	4.55
B26	0.81
B27	3.64
B28	2.2
B29	4.41
B30	2.6

Target: T2, mouse FcγRIII extracellular domain, …
Experiment: SPR Biacore T200, KD ratio
Protocol: as §1, §2

Binder	relative mFcγRIII-binding activity (mIgG1 = 1) [fold]
B1	0.09
B2	0.21
B3	0.14
B4	0.29
B5	0.25
B6	0.51
B7	0.13
B8	0.08
B9	0.09
B10	0.2
B11	0.28
B12	0.08
B13	0.04
B14	0.64
B15	0.18
B16	0.15
B17	0.17
B18	0.12
B19	0.05
B20	0.06
B21	0.1
B22	0.1
B23	0.04
B24	0.38
B25	0.3
B26	0.12
B27	0.18
B28	0.06
B29	0.14
B30	0.15

These binders were tested against T3, mouse FcγRII (assay: SPR (Biacore), antibody captured on Protein L).
Protocol: as §1, §2

Binder	Kd
B31	115 nM and 250 nM
B32	180 nM and 307 nM

Target: T4, mouse FcγRIII
Experiment: SPR (Biacore), antibody captured on Protein L
Protocol: as §1, §2

Binder	Kd
B31	3230 nM and 9030 nM
B32	1420 nM and 2360 nM
